Results reported in patent US20210371538A1 (Genmab, published 2021).

Biological target: T1, CD20 (human, UniProt P11836 1-297, limits assumed)
T1 construct: The KD sentence says only 'CD20'; also called human CD20; B-cell antigen CD20
T1 sequence (looked up): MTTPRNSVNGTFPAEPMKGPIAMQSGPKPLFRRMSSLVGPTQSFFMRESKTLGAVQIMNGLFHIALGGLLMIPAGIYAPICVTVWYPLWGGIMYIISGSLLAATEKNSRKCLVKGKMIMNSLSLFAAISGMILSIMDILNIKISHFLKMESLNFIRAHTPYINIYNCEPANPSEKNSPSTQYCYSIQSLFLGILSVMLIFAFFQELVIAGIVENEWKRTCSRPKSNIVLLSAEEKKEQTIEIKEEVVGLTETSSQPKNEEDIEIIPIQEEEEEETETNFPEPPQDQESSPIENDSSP
Test: in vitro measurement, method not stated; used as a PK/PD model parameter

B1: DuoBody-CD3×CD20 (bispecific antibody, human IgG1, kappa, lambda)
heavy 1: not shown
light 1: not shown
heavy 2: EVQLVESGGGLVQPDRSLRLSCAASGFTFHDYAMHWVRQAPGKGLEWVSTISWNSGTIGYADSVKGRFTISRDNAKNSLYLQMNSLRAEDTALYYCAKDIQYGNYYYGMDVWGQGTTVTVSSASTKGPSVFPLAPSSKSTSGGTAALGCLVKDYFPEPVTVSWNSGALTSGVHTFPAVLQSSGLYSLSSVVTVPSSSLGTQTYICNVNHKPSNTKVDKRVEPKSCDKTHTCPPCPAPEFEGGPSVFLFPPKPKDTLMISRTPEVTCVVVAVSHEDPEVKFNWYVDGVEVHNAKTKPREEQYNSTYRVVSVLTVLHQDWLNGKEYKCKVSNKALPAPIEKTISKAKGQPREPQVYTLPPSREEMTKNQVSLTCLVKGFYPSDIAVEWESNGQPENNYKTTPPVLDSDGSFFLYSRLTVDKSRWQQGNVFSCSVMHEALHNHYTQKSLSLSPG
light 2: not shown
notes: Full-length IgG1 bispecific with an inert Fc (L234F, L235E, D265A), made by controlled Fab-arm exchange of IgG1-CD3-FEAL and IgG1-CD20-FEAR; One heavy/light pair for each arm; also called epcoritamab; GEN3013
  Kd: 5.4 nM
